The source of these data is the RNAGym collection of RNA variant scans (doi:10.7554/elife.80360).

B1: Hairpin Ribozyme (parent)
chain: GUCCUCUUUCACGUGCGCGUGAAAGAGAGAAGUGAACCAGAGAAACACACGUUGUGGUAUAUUACCUGGUA

The variants in this data set derive from B1. The experiment in a line: self-cleavage, relative activity (ratio to wild type); higher = more cleavage; co-transcriptional.
Turning to GUCCUCUUUCACGUGCGCUUGAAAGAGAGAAGUGAACCAGAGAAACACACGUUGUGGUAUCUUACCUGGUA, the self-cleavage was 0.236.

As for GUCCUCUUUCACGUGCGCUUGAAAGAGAGAAGUGAACCAGAGAAACACACGUUGUGGUAUGUUACCUGGUA, the self-cleavage is 0.231.

Consider GUCCUCUUUCACGUGCGCUUGAAAGAGAGAAGUGAACCAGAGAAACAAACGUUGUGGUAUAUUACCUGGUA, for which the self-cleavage amounted to 0.135.

Regarding GUCCUCUUUCACGUGCGCUUGAAAGAUAGAAGUGAACCAGAGAAACACACGUUGUGGUAUAUUACCUGGUA, the self-cleavage was found to be 0.262.

Consider GUCCUCUUUCACGUGCGCUUGAAAGACAGAAGUGAACCAGAGAAACACACGUUGUGGUAUAUUACCUGGUA, for which the self-cleavage was 0.318.

With GUCCUCUUUCACGUGCGCUUGAAAGAGAGAAGUGAACCAGAGAAACCCACGUUGUGGUAUAUUACCUGGUA, the self-cleavage stood at 0.418.

Consider GUCCUCUUUCACGUGCGCUUGAAAGAGAGAAGUGAACCAGAGAAACGCACGUUGUGGUAUAUUACCUGGUA, for which the self-cleavage worked out at 0.24.

On to GUCCUCUUUCACGUGCGCUUGAAAGAGAGAAGUGAACCACAGAAACACACGUUGUGGUAUAUUACCUGGUA, for which the self-cleavage was found to be 0.11.

As for GUCCUCUUUCACGUGCGCUUGAAAGAGAGAAGUGAACCAGAGAAAUACACGUUGUGGUAUAUUACCUGGUA, the self-cleavage is 0.136.

Take GUCCUCUUUCACGUGCGCUUCAAAGAGAGAAGUGAACCAGAGAAACACACGUUGUGGUAUAUUACCUGGUA: the self-cleavage is 0.692.

Take GUCCUCUUUCACGUGCGCUUGAAAGAGAGAAGUGAAUCAGAGAAACACACGUUGUGGUAUAUUACCUGGUA: the self-cleavage amounted to 0.588.

Consider GUCCUCUUUCACGUGCGCUUGAAAGAGAGAAGUGAACCAGAGAAACACACAUUGUGGUAUAUUACCUGGUA, for which the self-cleavage came to 0.956.

GUCCUCUUUCACGUGCGCUUGAAAGAGAGAAGUGAACCAGAGAAACACACUUUGUGGUAUAUUACCUGGUA: the self-cleavage amounted to 0.947.

For the variant GUCCUCUUUCACGUGCGCUUGAAAGAGAGAAGUGAACCAGAGAAACACACCUUGUGGUAUAUUACCUGGUA, the self-cleavage is 0.707.

Consider GUCCUCUUUCACGUGCGCUUGAAAGAGAGAAGUGAACCAGAGUAACACACGUUGUGGUAUAUUACCUGGUA, for which the self-cleavage was 0.134.

As for GUCCUCUUUCACGUGCGCUUGAAAUAGAGAAGUGAACCAGAGAAACACACGUUGUGGUAUAUUACCUGGUA, the self-cleavage was determined as 0.548.

For GUCCUCUUUCACGUGCGCUUGAAAAAGAGAAGUGAACCAGAGAAACACACGUUGUGGUAUAUUACCUGGUA, the self-cleavage stood at 0.33.

For GUCCUCUUUCACGUGCGCUUGAAACAGAGAAGUGAACCAGAGAAACACACGUUGUGGUAUAUUACCUGGUA, the self-cleavage is 0.537.

With GUCCUCUUUCACGUGCGCUUGAAAGAGAGAAGUGAACCAGAGAAACACACGUUGUGGUAUAUUACCUGAUA, the self-cleavage was 0.32.

On to GUCCUCUUUCACGUGCGCUUGAAAGAGAGAAGUAAACCAGAGAAACACACGUUGUGGUAUAUUACCUGGUA, for which the self-cleavage came out at 1.19.

For the variant GUCCUCUUUCACGUGCGCUUGAAAGAGAGAAGUGAACCAGAGAAACACACGUUGUGAUAUAUUACCUGGUA, the self-cleavage turned out to be 0.169.

Turning to GUCCUCUUUCACGUGCGCUUGAAAGAGAGAAGUGAACCAGAGAAACACACGUUGUCGUAUAUUACCUGGUA, the self-cleavage was 0.223.

In the case of GUCCUCUUUCACGUGCGCUUGAAAGAGAGAAGUGAACCAGAGAAACACACGUUGUAGUAUAUUACCUGGUA, the self-cleavage turned out to be 0.16.

As for GUCCUCUUUCACGUGCGCUUGAAAGAGAGAAGUGAACCAGAGAGACACACGUUGUGGUAUAUUACCUGGUA, the self-cleavage stood at 0.163.

With GUCCUCUUUCACGUGCGCUUGAAAGAGAGAAGUGAACCAGAGAAACACACGUUGUGGUAUAUUACGUGGUA, the self-cleavage is 0.22.

Consider GUCCUCUUUCACGUGCGCUUGAAAGAGAGAAGUGAACCAGAGAAUCACACGUUGUGGUAUAUUACCUGGUA, for which the self-cleavage came out at 0.145.

As to GUCCUCUUUCACGUGCGCUUGAAAGAGAGAAGUGAACCAGAGAAGCACACGUUGUGGUAUAUUACCUGGUA, the self-cleavage came out at 0.228.

Take GUCCUCUUUCACGUGCGCUUGAAAGAGAGAAGUGAACCAGAGAACCACACGUUGUGGUAUAUUACCUGGUA: the self-cleavage came out at 0.292.

In the case of GUCCUCUUUCACGUGCGCUUGAAAGAGAGAAGUGAACCAGAGAAACACGCGUUGUGGUAUAUUACCUGGUA, the self-cleavage amounted to 0.545.

GUCCUCUUUCACGUGCGCUUGAAAGAGAGAAGUGAACCAGAGAAACACCCGUUGUGGUAUAUUACCUGGUA: the self-cleavage came out at 0.18.

With GUCCUCUUUCACGUGCGCUUGAAAGAGAGAAGUGAACCAGAGAAACACAUGUUGUGGUAUAUUACCUGGUA, the self-cleavage worked out at 0.33.

Turning to GUCCUCUUUCACGUGCGCUUGAAAGAGACAAGUGAACCAGAGAAACACACGUUGUGGUAUAUUACCUGGUA, the self-cleavage is 0.0899.

For GUCCUCUUUCACGUGCGCUUGAAAGAGAGAAGUGAACCAGAGAAACACACGUUGUGGUAUAUUACCUUGUA, the self-cleavage was found to be 0.338.

As to GUCCUCUUUCACGUGCGCUUGAAAGAGAGAAGUGAACCAGAGAAACACACGUUGUGGUAUAUUACCUGGUC, the self-cleavage was 1.39.

For the variant GUCCUCUUUCACGUGCGCUUGAAAGAGAGAAGUGAACCAGAGAAACACACGUUGUGGUAUAUUACCUGGUU, the self-cleavage came out at 0.738.

In the case of GUCCUCUUUCACGUGCGCUUGAAAGAGAGAAGUGAACCAGAUAAACACACGUUGUGGUAUAUUACCUGGUA, the self-cleavage is 0.346.

Turning to GUCCUCUUUCACGUGCGCUUGAAAGAGAGAAGUGAACCAGAAAAACACACGUUGUGGUAUAUUACCUGGUA, the self-cleavage was 0.175.

For the variant GUCCUCUUUCACGUGCGCUUGAAAGAGAGAAGUGAACCAGAGAAACACACGUUGUGGUAUAUUUCCUGGUA, the self-cleavage is 0.217.
